Results published in paper PMC8047137, “Smyd1 Orchestrates Early Heart Development Through Positive and Negative Gene Regulation” (Frontiers in Cell and Developmental Biology, 2021).

Target: V5-tagged ASH2L (absent small homeotic-2-like protein) (mouse, UniProt Q91X20 1-623)
Test: cell-based or functional assay

Sequence of V5-tagged ASH2L (absent small homeotic-2-like protein) (Q91X20 whole entry): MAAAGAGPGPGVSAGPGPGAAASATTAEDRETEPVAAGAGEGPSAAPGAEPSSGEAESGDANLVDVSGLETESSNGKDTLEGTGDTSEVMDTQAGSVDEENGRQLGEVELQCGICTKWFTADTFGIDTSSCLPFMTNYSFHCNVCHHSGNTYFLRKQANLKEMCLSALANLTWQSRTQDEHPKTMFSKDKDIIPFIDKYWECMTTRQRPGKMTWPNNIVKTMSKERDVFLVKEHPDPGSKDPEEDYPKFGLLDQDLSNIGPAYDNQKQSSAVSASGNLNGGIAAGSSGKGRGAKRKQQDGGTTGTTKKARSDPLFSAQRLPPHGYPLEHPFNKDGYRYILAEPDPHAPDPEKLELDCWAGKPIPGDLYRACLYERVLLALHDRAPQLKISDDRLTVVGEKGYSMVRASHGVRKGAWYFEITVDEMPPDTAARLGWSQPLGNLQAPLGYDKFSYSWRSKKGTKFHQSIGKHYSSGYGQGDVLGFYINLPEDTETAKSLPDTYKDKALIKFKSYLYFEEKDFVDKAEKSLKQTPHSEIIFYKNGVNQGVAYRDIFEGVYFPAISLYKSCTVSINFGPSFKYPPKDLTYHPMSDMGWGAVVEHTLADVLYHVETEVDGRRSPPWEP

B1: Myc-tagged Smyd1 (SET and MYND domain-containing protein 1) (natural protein, mouse, UniProt P97443 1-490, looked up)
chain: MTIGSMENVEVFTSEGKGRGLKATKEFWAADVIFAERAYSAVVFDSLINFVCHTCFKRQEKLHRCGQCKFAHYCDRTCQKDAWLNHKNECAAIKKYGKVPNENIRLAARIMWRVEREGTGLTEGCLVSVDDLQNHVEHFGEEEQKELRVDVDTFLQYWPPQSQQFSMQYISHIFGVINCNGFTLSDQRGLQAVGVGIFPNLGLVNHDCWPNCTVIFNNGNHEAVKSMFHTQMRIELRALGKISEGEELTVSYIDFLHLSEERRRQLKKQYYFDCSCEHCQKGLKDDLFLAAKEDPKPSQEVVKEMIQFSKDTLEKIDKARSEGLYHEVVKLCRECLEKQEPVFADTNLYVLRLLSIASEVLSYLQAYEEASHYARRMVDGYMKLYHHNNAQLGMAVMRAGLTNWHAGHIEVGHGMICKAYAILLVTHGPSHPITKDLEAMRMQTEMELRMFRQNEFMYHKMREAALNNQPMQVMAEPSNEPAPALFHKKQ
Isl1 promoter (pLG3-Isl1-WT) luciferase reporter activity in C2C12 cells, ASH2L overexpressed with Smyd1: 25 fold above basal level
